Assay [1] has as its system gene sets characteristic of normal stem cells or cancer stem cells. Kind of assay: Microarray gene set enrichment analysis of treated OMP-LU102 tumors. The class given is in vivo, NOD-SCID mice. The settings on record: RNA from OMP-LU102 tumors after treatment, FIG. 11B. The protocol: RNA was prepared from tumors from each of the four experimental groups following the treatment. Gene expression was characterized by microarray analysis.

The test system of assay [2] is RSPO3-induced β-catenin signaling. Kind of assay: TOPflash 6xTCF-luciferase reporter assay in HEK-293 cells with WNT3a and RSPO3. The class given is cell-based, human. The protocol:
HEK-293 cells were transfected with a 6×TCF-luciferase reporter vector (TOPflash, Millipore, Billerica, Mass.). After 24-48 hrs, the transfected HEK-293 cells were incubated with a combination of WNT3a (5 ng/ml) and human RSPO3 (10 ng/ml, R&D BioSystems, Minneapolis, Minn.) in the presence of anti-RSPO3 antibodies 131R002 and 131R003. Antibodies 131R002 and 131R003 were added to the cells in 4-fold serial dilutions from 20 μg/ml to 0.02 μg/ml. As controls, cells were incubated with a combination of WNT3a and RSPO3, WNT3a only, RSPO3 only, or with no addition. The cells were incubated for 16 hours and luciferase activity was measured using Steady-Glo® Luciferase Assay System according to the manufacturer's instructions (Promega, Madison, Wis.).
HEK-293 cells were transfected with a 6×TCF-luciferase reporter vector (TOPflash, Millipore, Billerica, Mass.). After 24-48 hrs, the transfected HEK-293 cells were incubated with a combination of WNT3a and human RSPO3 in the presence of anti-RSPO3 antibodies 131R003, 131R003 CDR1 variant and 131R003 CDR3 variant. 131R003, 131R003 CDR1 variant, and 131R003 CDR3 variant were added to the cells in 5-fold serial dilutions from 20 μg/ml to 0.006 μg/ml. As controls, cells were incubated with a combination of WNT3a and RSPO3, WNT3a only, RSPO3 only, a control antibody, or with no addition. The cells were incubated for 16 hours and luciferase activity was measured using Steady-Glo® Luciferase Assay System according to the manufacturer's instructions (Promega, Madison, Wis.).
HEK-293 cells were transfected with a 6×TCF-luciferase reporter vector (TOPflash, Millipore, Billerica, Mass.). After 24-48 hrs, the transfected HEK-293 cells were incubated with a combination of WNT3a conditioned medium (5 ng/ml) and human RSPO3 (10 ng/ml, R&D BioSystems) in the presence of anti-RSPO3 antibodies 131R002, 131R006B, or 131R007. Antibodies 131R002, 131R006 or 131R007 were added to the cells in 5-fold serial dilutions from 20 μg/ml to 0.0064 μg/ml. As controls, cells were incubated with WNT3a conditioned medium alone, a combination of WNT3a conditioned medium and human RSPO3, or with no addition to cells. The cells were incubated for 16 hours and luciferase activity was measured using Steady-Glo® Luciferase Assay System according to the manufacturer's instructions (Promega, Madison, Wis.).
HEK-293 cells were transfected with a 6×TCF-luciferase reporter vector (TOPflash, Millipore, Billerica, Mass.). […] The cells were incubated for 16 hours and luciferase activity was measured using Steady-Glo® Luciferase Assay System according to the manufacturer's instructions (Promega, Madison, Wis.).

The target in another assay is T1, human LGR5 (Homo sapiens, UniProt O75473).
T1 construct: ligating amino acids 22-564 of human LGR5 to an N-terminal FLAG tag; expressed in transfected cells; host or cells: HEK-293
T1 sequence (O75473 22-564): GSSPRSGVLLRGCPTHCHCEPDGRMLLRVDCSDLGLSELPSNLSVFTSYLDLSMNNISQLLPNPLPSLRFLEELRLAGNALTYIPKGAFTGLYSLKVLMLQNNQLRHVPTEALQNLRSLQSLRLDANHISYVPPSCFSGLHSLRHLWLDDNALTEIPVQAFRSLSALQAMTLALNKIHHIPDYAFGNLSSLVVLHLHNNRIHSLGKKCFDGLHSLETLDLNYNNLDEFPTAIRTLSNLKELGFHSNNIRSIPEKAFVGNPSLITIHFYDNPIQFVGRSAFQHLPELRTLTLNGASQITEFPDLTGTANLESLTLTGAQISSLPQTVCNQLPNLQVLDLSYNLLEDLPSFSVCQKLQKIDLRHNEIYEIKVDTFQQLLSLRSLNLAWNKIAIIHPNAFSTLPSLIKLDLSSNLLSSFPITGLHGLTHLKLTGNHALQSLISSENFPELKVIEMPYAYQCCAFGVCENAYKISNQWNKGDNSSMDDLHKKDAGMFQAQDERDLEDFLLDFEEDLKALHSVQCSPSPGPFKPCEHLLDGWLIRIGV
Kind of assay: FACS binding of RSPO-Fc fusion proteins to LGR5 expressed on HEK-293 cells. As to conditions: 10 μg/ml Fc fusion protein, FIG. 2. An excerpt:
A cell surface LGR5 protein was generated by ligating amino acids 22-564 of human LGR5 to an N-terminal FLAG tag and to the transmembrane domain of CD4 and a C-terminal GFP protein tag using standard recombinant DNA techniques (FLAG-LGR5-CD4TM-GFP). RSPO-Fc constructs were generated using standard recombinant DNA techniques. Specifically, full-length human RSPO1, RSPO2, RSPO3 and RSPO4 were ligated in-frame to a human Fc region and the recombinant RSPO-Fc proteins were expressed in insect cells using baculovirus. The fusion proteins were purified from the insect medium using protein A chromatography.
HEK-293 cells were transiently transfected with the FLAG-LGR5-CD4TM-GFP construct. After 48 hours, transfected cells were suspended in ice cold PBS containing 2% FBS and heparin and incubated on ice in the presence of 10 μg/ml RSPO1-Fc, RSPO2-Fc, RSPO3-Fc, RSPO4-Fc, or FZD8-Fc fusion proteins for 15 minutes. A second incubation with 100 μl PE-conjugated anti-human Fc secondary antibody was performed to detect cells bound by the Fc fusion proteins. Cells were incubated with an anti-FLAG antibody (Sigma-Aldrich, St. Louis, Mo.) as a positive control and with an anti-PE antibody as a negative control. The cells were analyzed on a FACSCalibur instrument (BD Biosciences, San Jose, Calif.) and the data was processed using FlowJo software.
(In general: A flow cytometer gives signals particle by particle.)

The source of these data is patent US9598497B2, “RSPO3 binding agents and uses thereof” (OncoMed Pharmaceuticals, Inc., priority 2012, dated 2017).

In the case of `N.N.O=C([O-])C1(C(=O)[O-])CCC1.[Pt+2]` [carboplatin, reference compound], in assay [1], the “expression of gene sets characteristic of normal stem cells or cancer stem cells” value is on record as “did not have this effect on gene expression”.

B1: 131R003: anti-RSPO3 antibody from a mammalian cell antibody library; heavy chain variable region SEQ ID NO:16, light chain variable region SEQ ID NO:17 (antibody, V domains shown)
VH: QVQLKQSGPELVKPGASVKISCKASGYTFTDYSIHWVKQNHGKSLDWIGYIYPSNGDSGYNQKFKNRATLTVDTSYSTAYLEVRRLTFEDSAVYYCATYFANYFDYWGQGTTLTVSSAST
VL: DIVLTQSPASLAVSLGQRATISCKASQSVDYDGDSYMNWYQQKPGQPPKLLIYAASNLESGIPARFSGSGSGTDFTLNIHPVEEEDAATYYCQQSNEDPLTFGAGTKLELKR
modifications: 131R003 Heavy chain variable region; 131R002/131R003 Light chain variable region
Regarding B1, in assay [2] (WNT3a 5 ng/ml + RSPO3 10 ng/ml, antibody 20 to 0.02 μg/ml, FIG. 3), the “RSPO3-induced β-catenin signaling” value is given as “reduced RSPO3-induced β-catenin signaling in a dose-dependent manner”.

B2: h131R010: humanized 131R003 variant, IgG1; heavy chain variable region SEQ ID NO:44, light chain variable region SEQ ID NO:86; ATCC PTA-120420 and PTA-120421 (antibody, V domains shown)
VH: QVQLVQSGAEVKKPGASVKVSCKASGYTFTDYSIHWVRQAPGQGLEWIGYIYPSNGDSGYNQKFKNRVTMTRDTSTSTAYMELSRLRSEDTAVYYCATYFANNFDYWGQGTTLTVSS
VL: DIQMTQSPSSLSASVGDRVTITCKASQSVDYDGDSYMNWYQQKPGKAPKLLIYAASNLESGVPSRFSGSGSGTDFTLTISPVQAEDFATYYCQQSNEDPLTFGAGTKLELKR
modifications: Humanized 131R005/131R007/131R008/ 131R010/131R011 Heavy chain variable region; Humanized 131R010/131R011 Light chain variable region
notes: humanized 131R003 variant, IgG1; ATCC PTA-120420 and PTA-120421
As to B2, the “WNT3a/RSPO3-induced β-catenin signaling” value in assay [2] (WNT3a conditioned medium 5 ng/ml + human RSPO3 2 ng/ml, antibody 20 to 0.0064 μg/ml, FIG. 13) was “reduced WNT3a/RSPO3-induced β-catenin signaling in a dose-dependent manner and to a similar extent as h131R007”.

B3: RSPO3: full-length human RSPO3 ligated in-frame to a human Fc region (protein)
chain: QNASRGRRQRRMHPNVSQGCQGGCATCSDYNGCLSCKPRLFFALERIGMKQIGVCLSSCPSGYYGTRYPDINKCTKCKADCDTCFNKNFCTKCKSGFYLHLGKCLDNCPEGLEANNHTMECVSIVHCEVSEWNPWSPCTKKGKTCGFKRGTETRVREIIQHPSAKGNLCPPTNETRKCTVQRKKCQKGERGKKGRERKRKKPNKGESKEAIPDSKSLESSKEIPEQRENKQQQKKRKVQDKQKSVSVSTVH
B3: in the assay with human LGR5, the “binding to LGR5 expressed on the surface of HEK-293 cells” value (from here on “binding to LGR5 expressed”) is listed as “bound to LGR5”.

B4: RSPO1: full-length human RSPO1 ligated in-frame to a human Fc region (protein)
chain: SRGIKGKRQRRISAEGSQACAKGCELCSEVNGCLKCSPKLFILLERNDIRQVGVCLPSCPPGYFDARNPDMNKCIKCKIEHCEACFSHNFCTKCKEGLYLHKGRCYPACPEGSSAANGTMECSSPAQCEMSEWSPWGPCSKKQQLCGFRRGSEERTRRVLHAPVGDHAACSDTKETRRCTVRRVPCPEGQKRRKGGQGRRENANRNLARKESKEAGAGSRRRKGQQQQQQQGTVGPLTSAGPA
modifications: left off: a dimerising Fc or GST
notes: full-length human RSPO1 ligated in-frame to a human Fc region
B4: the “binding to LGR5 expressed” value with human LGR5 is “bound to LGR5”.

B5: RSPO2: full-length human RSPO2 ligated in-frame to a human Fc region (protein)
chain: QGNRWRRSKRASYVSNPICKGCLSCSKDNGCSRCQQKLFFFLRREGMRQYGECLHSCPSGYYGHRAPDMNRCARCRIENCDSCFSKDFCTKCKVGFYLHRGRCFDECPDGFAPLEETMECVEGCEVGHWSEWGTCSRNNRTCGFKWGLETRTRQIVKKPVKDTIPCPTIAESRRCKMTMRHCPGGKRTPKAKEKRNKKKKRKLIERAQEQHSVFLATDRANQ
modifications: left off: a dimerising Fc or GST
notes: full-length human RSPO2 ligated in-frame to a human Fc region
Turning to B5, the “binding to LGR5 expressed” value with human LGR5 is listed as “bound to LGR5”.
